According to patent US6867003:

Molecular target: insulin receptor partially purified from CHO-IR cells (Chinese Hamster Ovary cells expressing high levels of insulin receptors of human origin) (human) (UniProt P06213)
Assay: cell-based or functional assay

B1: GST-mGrb10 (protein, mouse, UniProt Q60760 1-621, looked up, not shown: a dimerising Fc or GST)
chain: MNNDINSSVESLNSACNMQSDTDTAPLLEDGQHASNQGAASSSRGQPQASPRQKMQRSQPVHILRRLQEEDQQLRTASLPAIPNPFPELTGAAPGSPPSVAPSSLPPPPSQPPAKHCGRCEKWIPGENTRGNGKRKIWRWQFPPGFQLSKLTRPGLWTKTTARFSKKQPKNQCPTDTVNPVARMPTSQMEKLRLRKDVKVFSEDGTSKVVEILTDMTARDLCQLLVYKSHCVDDNSWTLVEHHPQLGLERCLEDHEIVVQVESTMPSESKFLFRKNYAKYEFFKNPVNFFPDQMVNWCQQSNGGQAQLLQNFLNTSSCPEIQGFLQVKEVGRKSWKKLYVCLRRSGLYYSTKGTSKEPRHLQLLADLEESSIFYLIAGKKQYNAPNEHGMCIKPNKAKTEMKELRLLCAEDEQIRTCWMTAFRLLKYGMLLYQNYRIPQRKGLPPPFNAPMRSVSENSLVAMDFSGQIGRVIDNPAEAQSAALEEGHAWRKRSTRMNILSSQSPLHPSTLNAVIHRTQHWFHGRISREESHRIIKQQGLVDGLFLLRDSQSNPKAFVLTLCHHQKIKNFQILPCEDDGQTFFTLDDGNTKFSDLIQLVDFYQLNKGVLPCKLKHHCIRVAL
amount giving 50% inhibition of the tyrosine kinase activity of the receptors (32P incorporation into poly Glu-Tyr): 0.13 µg
